Test results taken from paper doi:10.1101/2021.07.09.451751v1.
Substitutions are numbered along the chain they refer to. Numbers in names are those of the source.

B1: full-length aqMutL (Aquifex aeolicus VF5) (protein)
chain: MFVKLLPPEVRKVIAAGEVIESPVDVVKELVENSLDAKATKVEVEIVKGGKRLIRVKDNGTGIHPEDVEKVVLQGATSKIETEKDLMNISTYGFRGEALYSISSVSKFKLRSRFFQEKEGKEIEVEAGNILGTRRVGMPVGTEVEVRDLFFNLPVRRKFLKKEDTERRKVLELIKEYALTNPEVEFTLFSEGRETLKLKKSSLKERVEEVFQTKTEELYAEREGITLRAFVSRNQRQGKYYVFINKRPIQNKNLKEFLRKVFGYKTLVVLYAELPPFMVDFNVHPKKKEVNILKERKFLELVRELAGKEKPIVDIPLSQPVKTYKPTYEILGQMDETFILVKDSEYLYFVDQHLLEERINYEKLKDENLACRISVKAGQKLSEEKIRELIKTWRNLENPHVCPHGRPIYYKIPLREIYEKVGRNY
B2: full-length aqMutL (Aquifex aeolicus VF5; K287A) (protein)
chain: B1 chain with K287A
B3: full-length aqMutL (Aquifex aeolicus VF5; N282A) (protein)
chain: B1 chain with N282A
B4: full-length aqMutL (Aquifex aeolicus VF5; K28E) (protein)
chain: B1 chain with K28E
B5: full-length aqMutL (Aquifex aeolicus VF5; K79R) (protein)
chain: B1 chain with K79R
B6: histidine-tagged human MLH1 NTD (Homo sapiens; K311E) (protein)
chain: MSFVAGVIRRLDETVVNRIAAGEVIQRPANAIKEMIENCLDAKSTSIQVIVKEGGLKLIQIQDNGTGIRKEDLDIVCERFTTSKLQSFEDLASISTYGFRGEALASISHVAHVTITTKTADGKCAYRASYSDGKLKAPPKPCAGNQGTQITVEDLFYNIATRRKALKNPSEEYGKILEVVGRYSVHNAGISFSVKKQGETVADVRTLPNASTVDNIRSIFGNAVSRELIEIGCEDKTLAFKMNGYISNANYSVKKCIFLLFINHRLVESTSLRKAIETVYAAYLPKNTHPFLYLSLEISPQNVDVNVHPTEHEVHFLHEESILERVQQHIESKLLG
B7: histidine-tagged human MLH1 NTD (Homo sapiens) (protein)
chain: B6 chain with E311K
B8: aqGyrB NTD (Aquifex aeolicus VF5) (protein)
chain: MKKRQSQTPQEYTAEAIKAVSGLEHVRLRPAMYIGDIGERGLHHLIWEILDNAVDEAVAGYARNISVTIHRDNSVTVEDDGRGIPVDIHPETGKPAVEMVFTMLGAGGKFEKKVYTYSGGLHGVGASVVNALSEWLIVEVYRDGKIYRMAFKRGEVVEPLHVVGETKKRGTKVSFKPDPEIFETTEIKFDIVEKRVRELAYLNPEVKFELTDERLGKHLIYKFDRGIEELVKYLNEGKEPLFKDIIRIQGEKEGVIVDIAFQYVKDYKERIESFVNNIKTVEGGTHVTGFRSGLSKAVIRMAQGLKLAKELKKSFTGEDVREGLTAVVACKVPNPQFEGQTKTKLGNQNVKQIVESITYDFLTSYFEKKRDVLKAIVEKAIEAALAREAAKKAKELV
B9: ProS2-fused human PMS2 NTD (Homo sapiens; K91R) (protein)
chain: MERAESSSTEPAKAIKPIDRKSVHQICSGQVVLSLSTAVKELVENSLDAGATNIDLKLKDYGVDLIEVSDNGCGVEEENFEGLTLKHHTSRIQEFADLTQVETFGFRGEALSSLCALSDVTISTCHASAKVGTRLMFDHNGKIIQKTPYPRPRGTTVSVQQLFSTLPVRHKEFQRNIKKEYAKMVQVLHAYCIISAGIRVSCTNQLGQGKRQPVVCTGGSPSIKENIGSVFGQKQLQSLIPFVQLPPSDSVCEEYGLSCSDALHNLFYISGFISQCTHGVGRSSTDRQFFFINRRPCDPAKVCRLVNEVYHMYNRHQYPFVVLNISVDSECVDINVTPDKRQILLQEEKLLLAVLKTSLIGMFDS
B10: ProS2-fused human PMS2 NTD (Homo sapiens; K340E) (protein)
chain: B9 chain with R91K, K340E
B11: ProS2-fused human PMS2 NTD (Homo sapiens) (protein)
chain: B9 chain with R91K
B12: ProS2-fused human PMS2 NTD (Homo sapiens; K340A) (protein)
chain: B9 chain with R91K, K340A

How the values were obtained:
[1] = substrate: Nc1ncnc2c1ncn2[C@@H]1O[C@H](COP(=O)(O)OP(=O)(O)OP(=O)(O)O)[C@@H](O)[C@H]1O; test: phosphate release, BIOMOL Green; assay type: biochemical, Aquifex aeolicus; conditions: 50 mM HEPES-KOH pH 7.5, 100 mM NaCl, 5 mM MgCl2, 70 °C
[2] = substrate: Nc1ncnc2c1ncn2[C@@H]1O[C@H](COP(=O)(O)OP(=O)(O)OP(=O)(O)O)[C@@H](O)[C@H]1O; test: phosphate release, BIOMOL Green; assay type: biochemical, Homo sapiens; conditions: 50 mM HEPES-KOH pH 7.5, 100 mM NaCl, 5 mM MgCl2, 37 °C

Row | Protein | Km [1] [µM] | kcat [1] [s⁻¹] | Km [2] [µM] | kcat [2] [s⁻¹]
1 | B1 | 360 ± 190 | 0.025 ± 0.0025 |  | 
2 | B2 | 370 ± 36 | 0.00767 ± 0.000383 |  | 
3 | B3 | 560 ± 54 | 0.000483 ± 1.67e-05 |  | 
4 | B4 | 900 ± 73 | 0.00733 ± 0.000367 |  | 
5 | B5 | 610 ± 130 | 0.00283 ± 0.000233 |  | 
6 | B6 |  |  | 750 ± 130 | 0.000333 ± 5e-05
7 | B7 |  |  | 790 ± 75 | 0.00267 ± 0.000108
8 | B8 | 250 ± 41 | 0.0367 ± 0.00217 |  | 
9 | B9 |  |  | 300 ± 42 | 0.000733 ± 2.83e-05
10 | B10 |  |  | 80 ± 12 | 0.000483 ± 3e-05
11 | B11 |  |  | 190 ± 39 | 0.00617 ± 0.0003
12 | B12 |  |  | 160 ± 93 | 0.00105 ± 0.000135
